Source: a protein production outcome set (Wang et al. 2014)

Assay: label from the status in PepcDB records

MVEIIIPVGPNDKLEWVKRSVNSALLQSVDKVIIYDNSERADIYNFFQELKDKLVYIKDKRMTKVNMARLRNKMLSLASDKYVIMLDSDVVIPKNYSNNIINKLERGVAYTWIHYAYSEEEIEKPLSISENNPNLGCAGLNLEVIKRIGYFDERYERDEDVWLYAKLKKTGYKVEPAEGRCLHLNKVHARLNLSSSVAEARRNLWRSKYDIMLMFDGLTDFTFLTGYSYYGSYYILAILSVIFHPLTFLYLPLIGYGVYYYKGPKKYLLNLIPGLSLAISFPYGLGYNLIQKLK
protein production: failed

PLPNPEGLDSDFLAVLSDYPSPDISPPIFRRGEKLRVISDEGGWWKAISLSTGRESYIPGICVARV
protein production: not failed

MKTLLIAWHSRTGAARQMAQALERGALAAALALEQPGQLRVRRQAASRTDAAALLAADGYLFCAPENLGSLSGAMKECFDRCYYGVLDRIQGRPYGVAISAGTDGEGAARQVERICTGWRLRAAAPPLIARSGAQTPEQIAAPKQVPADVLARCEELGGLLAATLLMGSLEHHHHHH
protein production: failed

MCRTRPSCGRMEEKRPVDAAGAVALIGIAALLAFNQVVIKVTGGGFGPLFQAGLRSALGLVFVLIWMRLLRKPIVFPRAALMGALITGLLFTVEFMALFAALDLTSVSRVSILFYSMPVWLALGGHFLLPGERLSGMRVLGLMLAMGGVVLALLERDAAHVSLLGDALAVFAAMCWAAIALGVRLTPLGRVPAEMQLMSQLVISAPLLLVLAPLTGETLRTPGLLHWAGLLFQAVGVVGLGFLIWFRLLAVYRANGVASFSFLSPVLAVILGWLLLGEQVGPLVWLALGLVAAGIVLINRR
protein production: failed

MKEFVHDYLAASVENEEEGGRMRWYPWHSAEYRFNHILNVVDIATKIARKEGANVDVTRVAALFHDIAKLEAEQDLHAEAGARIAREYLRAHGDYPESFIEQVCSAVEVHSYQGSLDDLPLEVQCLIEADILDKVGANGTALMLLRMGYESRTHMDAAEMVDRVIERGEDARERVQSDTAESLVHQRLKRTRWFQEWLTMEVAEMAVEDDLDDVATGMGDSLEHHHHHH
protein production: not failed

QKVPLPSLSPTMQAGTIARWEKKEGDKINEGDLIAEVETDKATVGFESLEECYMAKILVAEGTRDVPIGAIICITVGKPEDIEAFKNYTLDSSAA
protein production: not failed

MTIISTIFFFSFSVFFVIRYLKLKKIYDLLMIFVGLYAGLINMKLMSLSTTVSYVLDTIVIVLVIISVILFLKDKKNY
protein production: failed

MALAVYLVPLPGLRASGHAALALLVFAVTMWATEAVPLAVTSLIILFAQPLIGVESFENAVIGFANPILFLMIGGFIMAEAIRKSGLAQRFTYYLLGRLGTSPERGLFVSIFSTGLLSAWIENVVAFAMLLPIIKEIVDIMGCSEPEKGKSNYAKAMILGASFGSLAGGFGTEIGTAPNLMAAAYTSIPFLNWMIFGLPLSIAMLLVTWFLLMRIFPSEVRALENGDALIGERIRMMGSMSRDEKLSAGILLFAILLWVTAGFTGINSYSVSLIAAVMFIFAGVITWKDAQKNIDWGLVVFFGGALSLGSALLKTGAAAWIIDKLVGMLGSDPSTVIVMLVLMAVAVIITQVMSNIALSAILVPLSVTLASAQHQPIGVYAVPVAIACSLSFMLPMADPTVAMAYGSGYVKLRDIPRAGIPIIAVGIILTVLVITTLAAPFIS
protein production: failed

MNAIVEPRRAQPTDSDAILNALPNPVLLVGPDGKIVDANMAAESFFEISTQLLRRQSLTDLVPFGSPLLALIEQVRVGHSPVNEYKVDLGTPRIGADRQVDLHVAPLNERPGHIVVMLQERTIADKMDRQLTHRSAARSVIALAAMLAHEIKNPLSGIRGAAQLLEQQASAEDRMLTRLICDEADRIVTLVDRMEVFGDDRPVARGPVNIHSVLDHVKRLAQSGFARNIKFIEDYDPSLPPVLANQDQLIQVFLNLVKNAAEAVVDLGSDGEIQLTTAFRPGVRLSVPGKKTRVSLPLEFCVRDNGPGVPEDLLPNLFDPFVTTKPSGSGLGLALVAKIVGDHGGIIECESQPRKTTFRVLMPMFNTAKALQSPNGEDAPASSDASQTAR
protein production: failed

MSALSRWLLIPPVSARLSERYQGYRRHGASPFSAALGCLWTILAWIVFPLEHPRWQRIRDGHKALYPHINAARPRPLDPARYLIQTLWLVMISSTKERHEPRWRSFARLKDVRGRYHQWMDTLPERVRQKTTHLEKEKELGHLSNGARRFILGVIVTFSLILALICITQPFNPLSQFIFLLLLWGVALLVRRMPGRFSALMLIVLSLTVSCRYIWWRYTSTLNWDDPVSLVCGLILLFAETYAWIVLVLGYFQVVWPLNRQPVPLPKEMSQWPTVDIFVPTYNEDLNVVKNTIYASLGIDWPKDKLNIWILDDGGRESFRQFARHVGVHYIARATHEHAKAGNINNALKHAKGEFVAIFDCDHVPTRSFLQMTMGWFLKEKQLAMMQTPHHFFSPDPFERNLGRFRKTPNEGTLFYGLVQDGNDMWDATFFCGSCAVIRRKPLDEIGGIAVETVTEDAHTSLRLHRRGYTSAYMRIPQSAGLATESLSAHIGQRIRWARGMVQIFRLDNPLFGKGLKLAQRLCYLNAMFHFLSGIPRLIFLTAPLAFLLLHAYIIYAPALMIALFVIPHMVHASLTNSKIQGKYRHSFWSEIYETVLAWYIAPPTLVALINPHKGKFNVTAKGGLVEEKYVDWVISRPYIFLVLLNLLGVAAGVWRYYYGPENETLTVIVSLVWVFYNLVILGGAVAVSVESKQVRRAHRVEIAMPGAIAREDGHLFSCTVHDFSDGGLGIKINGQAQVLEGQKVNLLLKRGQQEYVFPTQVVRVTGNEVGLQLMPLTTKQHIDFVQCTFARADTWALWQDSFPEDKPLESLLDILKLGFRGYRHLAEFAPPSVKVIFRSLTALIAWIVSFIPRRPERQAAIQPSDRVMAQAQQ
protein production: failed

MSLDKKLMPVPDGHPDVFDREWPLRVGDIDRAGRLRLDAACRHIQDIGQDQLREMGFEETHPLWIVRRTMVDLIRPIEFGDMLRCRRWCSGTSNRWCEMRVRVDGRKGGLIESEAFWIHVNRETEMPARIADDFLAGLHRTTSVDRLRWKGYLKPGSRDDASEIHEFPVRVTDIDLFDHMNNAVYWSVIEDYLASHAELLRGPLRVTIEHEAPVALGDKLEIISHVHPAGSTEIFGPGLVDRAVTTLTYVVGDEPKAVASLFNL
protein production: failed

MKSQFLLSVKEHMLTRYYANKTIESYLFWIKRFIVFHQFAHPSKLSEDDVIRFLSHLAIDEKVAVKTQALALNAISFLYRDFFKTPLSLDMRFQKSLTEKKLPVVLTRDEVRRFV
protein production: failed

MSDLEVQVPTAFDPFADANAEDSGAGTKEYVHIRVQQRNGRKSLTTVQGLKKEYSYSKILKDLKKEFCCNGTVVQDSELGQVIQLQGDQRKNVSTFLVQAGLVKKDNIKIHGF
protein production: failed

MRNLKDRVLNSLKGNKKDIKISVVVPTYNTELEGLKNLMASIDKQTMNPDEYELVFVDDGSTTDTYERLQEFAETRPNMTVKQIENSGWGSRPRNIATKMAKGEYILYLDHDDTVFPETFERVYNFGKENNLDVVSGKEVRTNGWSWGWKQFSENNPHAEEMGIECLLPMTPHKFYKREFLLENDITFDDGARVLWEDVYFNSKAFIHGAKVGILADYPTYYWIATGANNSSSFGRDPHEKWNQINKLFNFFKDNIKEQRDLDFMLTHWYRSRVLGILGQWLLKNNNERIDIEFNYAKKLAEELIPAYISENLDKNNQVKDYLLRQGDLDSLKKLAQIDAGITALSYVEDAYFKEDKLFFKTSTKMTYEDKEDFFIEKTADRMERILPEEIKSKLPKEFFDYSDDLAEFTYEPSIKGRNSRATWKIDGSTSNVEVVNKKANLYKIEGEMSFSVQINDYILDAADKKQPWDIATRFTGLGYTSHRALTIGKILIKTALINNKTMIVYKNASGLISLDVGSSVRSIVEDSGVKREQILIDKTSGKVTIPLNEIHVFGESLIEGNAELKPVGISDADPINVKAKLIGEANKARVEVLLGDEKLSGEYHLVTNIQGKKDKQQIKITL
protein production: failed

MQGNALTILLSGKKYLLLQGPMGPFFNDVAEWLESLGRNAVNVVFNGGDRFYCRHRQYLAYYQTPKEFPGWLRALHRQYDFDTILCFGDCRPLHKEAKRWAKSKGIRFLAFEEGYLRPQFITVEEGGVNAYSSLPRDPDFYRKLPDMPAPHVENLKPSTMKRIGHAMWYYLMGWHYRHEFPRYRHHKSFSPWYEARCWVRAYWRKQLYKVTQRKVLPRLMNELDQRYYLAVLQVYNDSQIRNHSNYNDVRDYINEVMYSFSRKAPKESYLVIKHHPMDRGHRLYRPLIKRLSKEYGLDERVIYVHDLPMPELLRHAKAVVTINSTAGISALIHNKPLKVMGNALYDIKGLTYQGHLHQFWQADFKPDMKLFKKFRGYLLVKTQVNGGYYGGVKFENALGMNKDFLFGSKSIS
protein production: failed

MRVDGLNGRPHSHWVINKVIGDSTMTFSNAQRLRPVRRHAIFQACALGFALALASGSAFAAAALTQPAQDPAKVAPASLAVSKIDFKRGEDGTGRLILQFNGQGASPDLRTQGDNVLVDISNARLPAELQRPLNVTDFATPVQRVEVKPSGSGSQLVLSTKGAFDSLAYQTGNEYVVEITPRKGQPAVGGVSPAAVTQAAAQIAARGYSGRPVTFNFQDVPVRTVLQLIAEESNLNIVASDTVQGNVTLRLMNVPWDQALDIVLRAKGLDKRRDGGVVWVAPQPELAKFEQDKEDARIAIENREDLITDYVQINYHNAAVIFKALTEAKGIGGGGGSGGGQGGQGGAGQQDNGFLSPRGRLVADERTNTLMISDIPKKVAQMRELISHIDRPVDQVLIESRIVIATDTFARDLGARFGIIGATGRGILSGSLDSNTNYLNTSAKRASEIANGGTSTTLPAHLFPSGLNVNLGAGGGFTTNTPGGLAYTLLGSNFNLDIELSAMQQEGRGEVVSNPRIVTANQREGVIKQGREIGYVTISGSGAGGGSQANVQFKEVLLELKVTPTITNDNRVFLNMNVKKDEVARLIDLPLYGTVPEINRREINTAVLVGDGETVVIGGVYEFTDRESVSKVPFLGDIPFLGNLFKKRGRSKEKAELLVFVTPKVLRVASATR
protein production: failed

MSKIEIFEAAGCCATSSVVVSDEAVKWNASAEWAKKHGVNIQRYSLAKNPQQFLNTPVIRAFLNTSGMESLPATLLDGQLVMAGKLPSREDIARWAG
protein production: not failed

MTAETSQTLDRGLRVLKLLADTDHGLTVTELSHKLGVNRTVVYRLLATLEQHALVRRDLGGRARVGLGVLGLGRQVHPLVREAAMPALRALAEDIGATAHLTLVDGAEALAVAVVEPTWTDYHVAYRAGFRHPLERGAAGKAILAARQPSQPTGGEAVDDPGYTLTHGELEAGACGAAAPLLGVTGVEGSVGVVMLADVVPERVGERVKHAAREVAEALR
protein production: failed

MEEWPALQWSQGTPASGPALQALEEYAFVPRDDESRQGIRTDALLVIRDGRLLYERYAGATGPQTPHLAWSASKSLLAVLLGVAFGEGRFQLQDPAAKFYPPLEAHPDITLADLLHWASGLDWQEDYEYAPLNSSVVAMLYTRGHRDMAAFTVQQAASGPPGQVFRYSSGDSNLLAASLRGMVGEGQYADYPWRALFEPLGITQAVWERDAAGTFVASSYLYLTARDLARIGLLMQRDGRWRDRQLLPKAWVEFCRTPFRGYRANQDVAVAGGHWWLNREVDGAPRPWPDAPADTYAALGHWGQALYVLPAQRLVIVRYGDDRDGSYQHNELLKRVLAAFATPEQPLEHHHHHH
protein production: failed

MSLPAFVEALLTPAAYPHAVTTPIQLLQTHISYVFLTGDYAYKVKKPADFGFLNFTTLERRLFYCQEELRLNRRLAPDLYLAVVPIVAVGDRYCVAHPQDLPAGAEVIEYAVQMRQFDQSQLFSHLFAANQVTPHLIESLGKELAHFHRCAATSPRISEFGSPRAIAQVINNCHALAAQFVGRCQSPEQYAAIQAFTDDFLSRRQEWFVRRQAGGKIRECHGDLHLNNICLYNGKVQIFDCIEFNEEFRNIDGIYDAAFLLMDLEFRRRGDLANLFLNTYLEWSGDYEGAVLLPLYLCVRAYIRGNVNALALNDPAISGAEKAQIQATAAAYYGAAYRYTQPRQAKLYMMCGLSGAGKSTRGRRLAQAEQAIQIRSDAVRKHLAHLPLDRRSTDFPEVDLYSDAMTEKTYDQLLAYAELLLPQGQTVILDAKYDRVALRQPVIALAKKLHVPLEIHFCSAPPEELHRRLSARQGDIAEATPDLIATQMASFEPFLPEEEPYVRHVCD
protein production: failed
